Data reported in the supplement of paper PMC9112550, “Optimization of the antimicrobial peptide Bac7 by deep mutational scanning” (BMC Biology, 2022).

These sequences were tested on Escherichia coli TOP10 (assay: shrunken log2 fold change of peptide-encoding DNA abundance (4.5 h post-induction vs induction); higher = less antimicrobial activity (less host growth inhibition)). Conditions: time post-induction: 4.5 h; library: site-saturation at positions 5, 18, 19, 20.
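Note: peptides expressed intracellularly from a pBAD plasmid library in pooled LB shake-flask culture, induced with 0.3% L-arabinose, DNA abundance read by NGS, three biological replicates, DESeq2 with apeglm shrinkage.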

| Sequence | shrunken log2 fold change |
| --- | --- |
| RRIRIRPPRLPRPRPRPSFGPRP | -0.389 |
| RRIRWRPPRLPRPRPRPGILPRP | 0.0649 |
| RRIRMRPPRLPRPRPRPVAFPRP | 0.579 |
| RRIRHRPPRLPRPRPRPREGPRP | 0.264 |
| RRIRKRPPRLPRPRPRPWQPPRP | 0.0588 |
| RRIRTRPPRLPRPRPRPSHLPRP | -0.411 |
| RRIRVRPPRLPRPRPRPNCWPRP | 0.0329 |
| RRIRVRPPRLPRPRPRPEICPRP | 0.2 |
| RRIRERPPRLPRPRPRPEMIPRP | -0.0286 |
| RRIRTRPPRLPRPRPRPWVVPRP | -0.0414 |
| RRIRGRPPRLPRPRPRPFQAPRP | 0.112 |
| RRIRMRPPRLPRPRPRPKGFPRP | 0.00502 |
| RRIRKRPPRLPRPRPRPCGHPRP | 0.0693 |
| RRIRQRPPRLPRPRPRPYLSPRP | 0.00493 |
| RRIRCRPPRLPRPRPRPPHRPRP | 0.854 |
| RRIRMRPPRLPRPRPRPQFAPRP | 0.0822 |
| RRIRDRPPRLPRPRPRPVHQPRP | -0.0516 |
| RRIRKRPPRLPRPRPRPDRLPRP | -0.038 |
| RRIRWRPPRLPRPRPRPEWCPRP | 0.386 |
| RRIRNRPPRLPRPRPRPQNLPRP | -0.266 |
| RRIRLRPPRLPRPRPRPGLVPRP | 0.0948 |
| RRIRWRPPRLPRPRPRPSNSPRP | -0.498 |
| RRIRNRPPRLPRPRPRPVITPRP | -0.662 |
| RRIRTRPPRLPRPRPRPVEYPRP | -0.122 |
| RRIRDRPPRLPRPRPRPVWAPRP | 0.548 |

| Sequence | shrunken log2 fold change |
| --- | --- |
| RRIRYRPPRLPRPRPRPRLAPRP | 0.299 |
| RRIRQRPPRLPRPRPRPTPPPRP | 0.537 |
| RRIRLRPPRLPRPRPRPFYAPRP | -0.279 |
| RRIRPRPPRLPRPRPRPIVNPRP | -0.166 |
| RRIRERPPRLPRPRPRPFNEPRP | -0.226 |
| RRIRARPPRLPRPRPRPWLKPRP | -0.0421 |
| RRIRNRPPRLPRPRPRPKEKPRP | -0.016 |
| RRIRLRPPRLPRPRPRPMTMPRP | 0.024 |
| RRIRVRPPRLPRPRPRPQTFPRP | -0.122 |
| RRIRHRPPRLPRPRPRPDEIPRP | -0.137 |
| RRIRPRPPRLPRPRPRPSRSPRP | 0.0328 |
| RRIRVRPPRLPRPRPRPDPYPRP | -0.1 |
| RRIRKRPPRLPRPRPRPGGDPRP | 0.16 |
| RRIRFRPPRLPRPRPRPMEPPRP | 0.039 |
| RRIRGRPPRLPRPRPRPRGVPRP | 0.89 |
| RRIRDRPPRLPRPRPRPEMFPRP | -0.0156 |
| RRIRVRPPRLPRPRPRPCFYPRP | -0.511 |
| RRIRCRPPRLPRPRPRPMNKPRP | -0.32 |
| RRIRYRPPRLPRPRPRPGNCPRP | -0.152 |
| RRIRPRPPRLPRPRPRPFDGPRP | -0.214 |
| RRIRTRPPRLPRPRPRPIFYPRP | -0.315 |
| RRIRIRPPRLPRPRPRPLWPPRP | -0.0906 |
| RRIRKRPPRLPRPRPRPKRKPRP | 0.89 |
| RRIRMRPPRLPRPRPRPLPGPRP | 0.8 |
| RRIRLRPPRLPRPRPRPTFPPRP | 0.131 |

| Sequence | shrunken log2 fold change |
| --- | --- |
| RRIRNRPPRLPRPRPRPDWMPRP | -0.0128 |
| RRIRQRPPRLPRPRPRPRGKPRP | 0.00142 |
| RRIRRRPPRLPRPRPRPTLQPRP | 0.678 |
| RRIRLRPPRLPRPRPRPQNIPRP | -0.512 |
| RRIRERPPRLPRPRPRPKVDPRP | 0.0519 |
| RRIRDRPPRLPRPRPRPEYSPRP | 0.0929 |
| RRIRNRPPRLPRPRPRPEKWPRP | -0.0101 |
| RRIRIRPPRLPRPRPRPMYTPRP | -0.244 |
| RRIRSRPPRLPRPRPRPKKWPRP | 0.0341 |
| RRIRPRPPRLPRPRPRPRMFPRP | 0.0598 |
| RRIRFRPPRLPRPRPRPDYMPRP | -0.432 |
| RRIRYRPPRLPRPRPRPEPCPRP | 0.189 |
| RRIRSRPPRLPRPRPRPICAPRP | 0.47 |
| RRIRVRPPRLPRPRPRPTWRPRP | 0.686 |
| RRIRARPPRLPRPRPRPDCWPRP | 1.21 |
| RRIRCRPPRLPRPRPRPVCVPRP | -0.0801 |
| RRIRMRPPRLPRPRPRPHLCPRP | -0.117 |
| RRIRMRPPRLPRPRPRPLNHPRP | -0.0957 |
| RRIRTRPPRLPRPRPRPSVKPRP | -0.177 |
| RRIRNRPPRLPRPRPRPTTIPRP | -0.819 |
| RRIRNRPPRLPRPRPRPNYKPRP | -0.827 |
| RRIRSRPPRLPRPRPRPVAVPRP | 0.0198 |
| RRIRPRPPRLPRPRPRPFTAPRP | -0.332 |
| RRIRGRPPRLPRPRPRPGAEPRP | 1.68 |
| RRIRQRPPRLPRPRPRPKIRPRP | 0.00599 |

| Sequence | shrunken log2 fold change |
| --- | --- |
| RRIRMRPPRLPRPRPRPKTYPRP | -0.0099 |
| RRIRRRPPRLPRPRPRPVINPRP | -0.0966 |
| RRIRCRPPRLPRPRPRPWFHPRP | -1.28 |
| RRIRLRPPRLPRPRPRPAACPRP | 0.267 |
| RRIRLRPPRLPRPRPRPPPNPRP | 1.18 |
| RRIRLRPPRLPRPRPRPHTMPRP | -1.13 |
| RRIRNRPPRLPRPRPRPWTNPRP | -0.492 |
| RRIRCRPPRLPRPRPRPGFCPRP | 0.124 |
| RRIRCRPPRLPRPRPRPQEWPRP | 0.00898 |
| RRIRHRPPRLPRPRPRPKPSPRP | 0.411 |
| RRIRDRPPRLPRPRPRPNPHPRP | -0.247 |
| RRIRYRPPRLPRPRPRPREGPRP | 0.251 |
| RRIRIRPPRLPRPRPRPVVAPRP | -0.0606 |
| RRIRCRPPRLPRPRPRPEDGPRP | -0.0134 |
| RRIRIRPPRLPRPRPRPHHRPRP | -0.46 |
| RRIRLRPPRLPRPRPRPFSIPRP | -0.158 |
| RRIRIRPPRLPRPRPRPMWYPRP | -0.554 |
| RRIRIRPPRLPRPRPRPITSPRP | -1.46 |
| RRIRGRPPRLPRPRPRPSTAPRP | 0.926 |
| RRIRQRPPRLPRPRPRPLNGPRP | -0.128 |
| RRIRGRPPRLPRPRPRPGCNPRP | 0.773 |
| RRIRARPPRLPRPRPRPFHSPRP | -0.217 |
| RRIRSRPPRLPRPRPRPMQWPRP | -0.145 |
| RRIRHRPPRLPRPRPRPTAFPRP | -0.00502 |
| RRIRFRPPRLPRPRPRPTGEPRP | 0.583 |

| Sequence | shrunken log2 fold change |
| --- | --- |
| RRIRIRPPRLPRPRPRPNARPRP | 0.0831 |
| RRIRGRPPRLPRPRPRPTHMPRP | 0.745 |
| RRIRIRPPRLPRPRPRPFWLPRP | 0.183 |
| RRIRTRPPRLPRPRPRPEVTPRP | -0.00738 |
| RRIRRRPPRLPRPRPRPNELPRP | 0.457 |
| RRIRRRPPRLPRPRPRPDDCPRP | 0.279 |
| RRIRGRPPRLPRPRPRPLVHPRP | -0.0335 |
| RRIRIRPPRLPRPRPRPFKFPRP | -0.702 |
| RRIRLRPPRLPRPRPRPPFHPRP | -0.0331 |
| RRIRGRPPRLPRPRPRPPFFPRP | 0.851 |
| RRIRYRPPRLPRPRPRPSTWPRP | -0.647 |
| RRIRLRPPRLPRPRPRPLLKPRP | -0.163 |
| RRIRNRPPRLPRPRPRPSMIPRP | -0.427 |
| RRIRRRPPRLPRPRPRPEMEPRP | 0.0355 |
| RRIRKRPPRLPRPRPRPRATPRP | 1.17 |
| RRIRCRPPRLPRPRPRPDPTPRP | 0.0668 |
| RRIRARPPRLPRPRPRPNEYPRP | -0.284 |
| RRIRPRPPRLPRPRPRPKLDPRP | 0.0519 |
| RRIRVRPPRLPRPRPRPMFFPRP | -0.333 |
| RRIRQRPPRLPRPRPRPTSTPRP | -0.0784 |
| RRIRCRPPRLPRPRPRPMGMPRP | -0.184 |
| RRIRGRPPRLPRPRPRPAYMPRP | -0.353 |
| RRIRQRPPRLPRPRPRPWKYPRP | -0.149 |
| RRIRWRPPRLPRPRPRPKSSPRP | 0.000999 |
| RRIRARPPRLPRPRPRPLPGPRP | 0.467 |

| Sequence | shrunken log2 fold change |
| --- | --- |
| RRIRTRPPRLPRPRPRPLYVPRP | -0.4 |
| RRIRERPPRLPRPRPRPHYHPRP | -0.356 |
| RRIRCRPPRLPRPRPRPDPQPRP | 0.17 |
| RRIRIRPPRLPRPRPRPNHQPRP | -0.164 |
| RRIRDRPPRLPRPRPRPGAWPRP | 4.01 |
| RRIRTRPPRLPRPRPRPWTDPRP | -0.17 |
| RRIRNRPPRLPRPRPRPQIFPRP | -0.27 |
| RRIRRRPPRLPRPRPRPHAQPRP | 0.0722 |
| RRIRARPPRLPRPRPRPQLGPRP | -0.0732 |
| RRIRFRPPRLPRPRPRPNLWPRP | 0.031 |
| RRIRKRPPRLPRPRPRPNSRPRP | 0.149 |
| RRIRRRPPRLPRPRPRPGDKPRP | -0.292 |
| RRIRLRPPRLPRPRPRPEDQPRP | 0.22 |
| RRIRWRPPRLPRPRPRPLACPRP | 0.206 |
| RRIRFRPPRLPRPRPRPNNPPRP | -0.625 |
| RRIRLRPPRLPRPRPRPYIRPRP | -1.62 |
| RRIRDRPPRLPRPRPRPECYPRP | -0.00335 |
| RRIRRRPPRLPRPRPRPTPSPRP | 0.772 |
| RRIRVRPPRLPRPRPRPDGDPRP | -0.339 |
| RRIRPRPPRLPRPRPRPPITPRP | -0.0969 |
| RRIRRRPPRLPRPRPRPKRDPRP | 0.5 |
| RRIRIRPPRLPRPRPRPPAVPRP | 0.279 |
| RRIRTRPPRLPRPRPRPQEKPRP | -0.0148 |
| RRIRYRPPRLPRPRPRPDMHPRP | -0.231 |
| RRIRFRPPRLPRPRPRPTTRPRP | 0.177 |
